{"source": "patent US20120225828A1", "key": {"[1]": {"biological_target": "recombinant human melanocortin-4 receptor hMCR-4 (human) (UniProt P32245)", "sequence (P32245 whole entry)": "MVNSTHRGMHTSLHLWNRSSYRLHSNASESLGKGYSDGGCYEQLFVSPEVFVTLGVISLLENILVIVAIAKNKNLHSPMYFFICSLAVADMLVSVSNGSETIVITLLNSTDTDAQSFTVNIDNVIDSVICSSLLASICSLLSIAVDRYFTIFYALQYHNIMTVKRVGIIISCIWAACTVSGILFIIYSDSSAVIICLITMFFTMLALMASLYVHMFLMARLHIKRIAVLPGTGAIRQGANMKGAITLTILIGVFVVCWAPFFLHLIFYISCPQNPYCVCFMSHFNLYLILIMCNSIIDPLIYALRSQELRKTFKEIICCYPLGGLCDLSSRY", "assay": "competition with [I125]-NDP-α-MSH; HEK-293 hMCR-4 membrane homogenates"}, "[2]": {"biological_target": "recombinant human melanocortin-1 receptor hMCR-1a (human) (UniProt Q01726)", "sequence (Q01726 whole entry)": "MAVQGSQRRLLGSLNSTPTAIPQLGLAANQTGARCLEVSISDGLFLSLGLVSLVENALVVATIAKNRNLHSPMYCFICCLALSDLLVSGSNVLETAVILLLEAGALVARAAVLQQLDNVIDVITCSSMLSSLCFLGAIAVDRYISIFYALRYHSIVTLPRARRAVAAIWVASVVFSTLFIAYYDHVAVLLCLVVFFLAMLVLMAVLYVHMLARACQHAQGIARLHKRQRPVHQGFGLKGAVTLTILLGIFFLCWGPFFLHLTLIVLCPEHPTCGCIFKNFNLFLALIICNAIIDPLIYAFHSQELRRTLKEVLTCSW", "assay": "competition with [I125]-NDP-α-MSH; HEK-293 hMCR-1a membrane homogenates"}}, "note": "Bridge positions count the residues as written; N and C are the ends. Square brackets hold non-standard residues; d marks the D form. Nle = CCCC[C@H](N)C(=O)O; Dab = NCC[C@H](N)C(=O)O", "data": [{"binder": "Ac-[Nle]EH[dF]R[Dab]K-NH2 (lactam 2-6; SMILES CCCC[C@H](NC(C)=O)C(=O)N[C@H]1CCC(=O)NCC[C@@H](C(=O)N[C@@H](CCCCN)C(N)=O)NC(=O)[C@H](CCCNC(=N)N)NC(=O)[C@@H](Cc2ccccc2)NC(=O)[C@H](Cc2c[nH]cn2)NC1=O)", "note": "[Ac-Nle-cyclo(Glu-His-D-Phe-Arg-Dab)-Lys-NH2 (SEQ ID NO: 55)]", "values": [{"measurement": "Ki", "setting": "[1]", "value": 7380, "unit": "nM"}, {"measurement": "Ki", "setting": "[2]", "value": 2, "unit": "nM"}]}, {"binder": "Ac-[Nle]EH[dF]A[Dab]W-NH2 (lactam 2-6; SMILES CCCC[C@H](NC(C)=O)C(=O)N[C@H]1CCC(=O)NCC[C@@H](C(=O)N[C@@H](Cc2c[nH]c3ccccc23)C(N)=O)NC(=O)[C@H](C)NC(=O)[C@@H](Cc2ccccc2)NC(=O)[C@H](Cc2c[nH]cn2)NC1=O)", "note": "[Ac-Nle-cyclo(Glu-His-D-Phe-Ala-Dab)-Trp-NH2]", "values": [{"measurement": "Ki", "setting": "[2]", "value": 0.08, "unit": "nM"}]}, {"binder": "Ac-[Nle]EH[dF]G[Dab]W-NH2 (lactam 2-6; SMILES CCCC[C@H](NC(C)=O)C(=O)N[C@H]1CCC(=O)NCC[C@@H](C(=O)N[C@@H](Cc2c[nH]c3ccccc23)C(N)=O)NC(=O)CNC(=O)[C@@H](Cc2ccccc2)NC(=O)[C@H](Cc2c[nH]cn2)NC1=O)", "note": "[Ac-Nle-cyclo(Glu-His-D-Phe-Gly-Dab)-Trp-NH2 (SEQ ID NO: 50)]", "values": [{"measurement": "Ki", "setting": "[1]", "value": 10000, "unit": "nM"}, {"measurement": "Ki", "setting": "[2]", "value": 9, "unit": "nM"}]}, {"binder": "Ac-[Nle]EH[dF]A[Dab]W-NH2 (lactam 2-6; SMILES CCCC[C@H](NC(C)=O)C(=O)N[C@H]1CCC(=O)NCC[C@@H](C(=O)N[C@@H](Cc2c[nH]c3ccccc23)C(N)=O)NC(=O)[C@H](C)NC(=O)[C@@H](Cc2ccccc2)NC(=O)[C@H](Cc2c[nH]cn2)NC1=O)", "note": "[Ac-Nle-cyclo(Glu-His-D-Phe-Ala-Dab)-Trp-NH2 (SEQ ID NO: 51)]", "values": [{"measurement": "Ki", "setting": "[1]", "value": 10000, "unit": "nM"}, {"measurement": "Ki", "setting": "[2]", "value": 0.08, "unit": "nM"}]}]}
